Values quoted from earlier work as cited in article PMC2695410.

Molecular target: Calmodulin (Bos taurus) (UniProt P62157)

Kd: 480 nM
Substance: Aquaporin 0 C-terminal peptide C-terminus (from UniProt P30301)
